Substrate in the data set: Nc1ncnc2c1ncn2[C@@H]1O[C@H](COP(=O)(O)OP(=O)(O)OP(=O)(O)O)[C@@H](O)[C@H]1O
The data set can be described thus: cAMP direct immunoassay, colorimetric. The format is biochemical, Trichomonas vaginalis. As to conditions: 4 µg GST-fusion protein; 0.2 mM GTP present in cAMP assay. A general note: Changes in cAMP serve as a functional read-out for many G protein-coupled receptors.

Data on two proteins can be found in PMC2914791, “Trichomonas Transmembrane Cyclases Result from Massive Gene Duplication and Concomitant Development of Pseudogenes” (PLoS Neglected Tropical Diseases, 2010).

B1: group B cyclase (TVAG_013980), Trichomonas TMAC cyclase domain (Trichomonas vaginalis G3) (protein)
chain: TIFFVDIVKFSNYAAALSPSEIMSNLSLVFSTFDKIVVKYPTILKIKLIGDVYMAAAGIFSDPQMNPSKPAEESVNCCLDIQKVMEQINVKLSAGLEVRIGVNTGGPLIGGVLGTDKPTFDIIGDPINVASRLQ
In general, Km refers to the substrate concentration at which the rate is half of its maximum. For the protein B1, the Km was 710 ± 10 µM.

B2: group A cyclase (TVAG_456550), Trichomonas TMAC cyclase domain (Trichomonas vaginalis G3) (protein)
chain: TILFLDVVEFTPWCGSHDAQYVMRMLNIMFKEFDVITNAHKTMTKIKCIGDCYMAAGGIFDEVNQPPVHAKEVVDFGCKVIKKLLEIDEQENEKLRIRVGINTGGPIVAGVIGTEKPTFEILGPAINIAHEME
For B2, the Km is 520 ± 10 µM.
